The target of the experiment is biotinylated Aβ immobilised for the SPR of CreneFab alanine mutants. Nature of the experiment: SPR; BIAcore T200, single-cycle kinetics; biotinylated Aβ (11–28 or oligomeric 1–42) captured on streptavidin-coupled CM5 chip (100–200 RU); antibody as analyte 0.8–500 nM in HBS-P pH 7.4, 0.15 M NaCl; one-to-one Langmuir model.

Results on two molecules are retold here after article PMC5171940.

B1: CreneFab Ser52a alanine mutant (Fab, V domains shown)
VH: EVQLVESGGGLVQPGGSLRLSCAASGFTFSSYGMSWVRQAPGKGLELVASINANGGSTYYPDSVKGRFTISRDNAKNSLYLQMNSLRAEDTAVYYCASGDYWGQGTLVTVSS
VL: DIVMTQSPLSLPVTPGEPASISCRSSQSLVYSNGDTYLHWYLQKPGQSPQLLIYKVSNRFSGVPDRFSGSGSGTDFTLKISRVEAEDVGVYYCSQSTHVPWTFGQGTKVEIK
Molecule B1 yielded a fold reduction of affinity against wild-type CreneFab of 1.8 fold.

B2: CreneFab with deletion of Glu1^HC and Val2^HC (Fab, V domains shown)
VH: QLVESGGGLVQPGGSLRLSCAASGFTFSSYGMSWVRQAPGKGLELVASINSNGGSTYYPDSVKGRFTISRDNAKNSLYLQMNSLRAEDTAVYYCASGDYWGQGTLVTVSS
VL: B1 VL
In turn, B2 gave a fold reduction of affinity against wild-type CreneFab of 2.6 fold.
